Test results from article PMC11924222, “Integrated Study of Fluorescence Enhancement in the Y176H Variant of Cyanobacterial Phytochrome Cph1” (Biochemistry, 2025).

B1: Cph1 Y176H variant of the Cph1 photosensory module (residues 1-514; NTS, nPAS, GAF and PHY domains), crystallization construct with N141R (domain or fragment, Synechocystis 6803, UniProt Q55168 1-514, looked up)
chain: MATTVQLSDQSLRQLETLAIHTAHLIQPHGLVVVLQEPDLTISQISANCTGILGRSPEDLLGRTLGEVFDSFQIDPIQSRLTAGQISSLNPSKLWARVMGDDFVIFDGVFHRNSDGLLVCELEPAYTSDNLPFLGFYHMARAALNRLRQQANLRDFYDVIVEEVRRMTGFDRVMLHRFDENNHGDVIAEDKRDDMEPYLGLHYPESDIPQPARRLFIHNPIRVIPDVYGVAVPLTPAVNPSTNRAVDLTESILRSAYHCHLTYLKNMGVGASLTISLIKDGHLWGLIACHHQTPKVIPFELRKACEFFGRVVFSNISAQEDTETFDYRVQLAEHEAVLLDKMTTAADFVEGLTNHPDRLLGLTGSQGAAICFGEKLILVGETPDEKAVQYLLQWLENREVQDVFFTSSLSQIYPDAVNFKSVASGLLAIPIARHNFLLWFRPEVLQTVNWGGDPNHAYEATQEDGKIELHPRQSFDLWKEIVRLQSLPWQSVEIQSALALKKAIVNLILRQAEE
modifications: phycocyanobilin (PCB) chromophore covalently attached to Cys259
notes: Cyanobacterial phytochrome Cph1 from Synechocystis 6803, photosensor residues 1-514 (NTS, nPAS, GAF and PHY domains), with Y176H and, for crystallization, N141R; PDB 2VEA is the wild-type parent; not shown: His6, N-terminal, cleaved

How the values were obtained:
His260 = His260 (UniProt position 260, SAYHCHLTYLK); assay: not stated for the pKa value; the article cites resonance Raman, MAS NMR and absorption studies; conditions: Pr (dark-adapted) state, PCB-bound holoprotein; cited from earlier work
[1] = target: the molecule itself; assay: crystal structure; X-ray, 3.7 Å; crystals grown in 0.3 M ammonium formate, 0.1 M HEPES pH 6.9, 18% Sokalan CP7; four protomers in the asymmetric unit

Molecule	pKa (His260)	binding result [1]
Phytochrome-like protein Cph1 (cyanobacterial phytochrome 1), photosensory module, wild type (Synechocystis sp. PCC 6803)	7.5	–
B1	–	binds
